Results: patent US20090169473A1, “DIAGNOSTIC AGENT AND THERAPEUTIC AGENT FOR DISEASE ASSOCIATED WITH HEPATOCYTE GROWTH FACTOR RECEPTOR” (FUJIFILM RI PHARMA CO., LTD., priority 2005, published 2009)

Tests used:
[1] = Heparin-binding activity by heparin affinity column HPLC; settings: for NaCl concentration at elution from heparin column: TSK-gel Heparin-5PW, linear gradient 0 to 2M NaCl, pH 7.5, room temperature
Description: The heparin-binding activity of [^125I]HGF(11-83)-NH2 (73 aa) produced in Example 1 was determined with high-performance liquid chromatography employing a heparin column. hrHGF (PEPTIDE INSTITUTE, INC.), having a high heparin-binding activity, was used as a positive control.
<High-Performance Liquid Chromatography Conditions>
Column: TSK-gel Heparin-5PW (0.75×7.5 cm): product of TOHSO
solution A: 10 mM Na phosphate buffer (pH 7.5);
solution B: 10 mM Na phosphate buffer (pH 7.5)+2M NaCl;
0 min to 3 min: solution A 100%
3 min to 30 min: linear gradient solution B 0% to 100%
Temperature: room temperature (about 25° C.)

[2] = tested on: HGF receptor expression site (infarct border zone); experiment: Dual nuclide autoradiography in myocardial ischemia model rats; assay type: in vivo, CD(SD) IGS rats; settings: 60 MBq femoral vein
Description: CD(SD) IGS rats (10-week-old) were anesthetized by intraperitoneally administering pentobarbital Na (35 mg/kg). After tracheostomy, an artificial respirator was attached to the rat. The left chest was opened, and an electrocardiogram was measured before coronary ligation. The coronary artery and its peripheral tissue (surrounding several millimeters) were ligated with suture, and ischemic state was determined on the basis of ST rise and recorded by an electrocardiogram. After recording, the chest was closed, and the trachea and the skin were sutured.
Three days after production of the myocardial ischemia model, a blood flow imaging agent ^99mTc-MIBI (Cardiolight Injection; DAIICHI RADIOISOTOPE LABS., LTD.) and [^125I]HGF(11-83)-NH2 (73 aa) were administered to each model rat. Blood flow was assessed through dual nuclide autoradiography and HE staining. ^99mTc-MIBI was administered at 60 MBq through a femoral vein. […] On the day of the experiment, the sample was affixed to an imaging plate for 30 minutes, and a ^99mTc-MIBI accumulation image was recorded by means of a bio-imaging analyzer BAS-1800 (FIG. 9). After 7-days attenuation period for ^99mTc for seven days, the sample was set again to the imaging plate for seven days, and a [^125I]HGF(11-83)-NH2 (73 aa) accumulation image was recorded by means of a bio-imaging analyzer BAS-1800 (FIG. 10).

[3] = tested on: HGF receptor expression site (infarct border zone); experiment: Pinhole-SPECT imaging in myocardial ischemia model rats; assay type: in vivo, Wistar rats; settings: 90 MBq left femoral vein
Description: Wistar rats (8-week-old) were anesthetized with isoflurane (Forane (R), Abbott). After tracheostomy, an artificial respirator connected to an anesthetizer was attached to each rat. The left chest was opened, and an electrogardiogram was measured before coronary ligation. The coronary artery and its peripheral tissue were ligated with suture. During ligation, nylon filament was placed as a spacer between the coronary artery and the suture in order to weaken the ligation strength so as not to completely intercept the blood flow. Ischemic state was determined on the basis of ST rise and recorded by an electrocardiogram. After recording, the left chest was closed, and the trachea and the skin were sutured.
Under inhalation anesthesia with isoflurane, ^99mTc-MIBI (90 MBq) was injected into the left femoral vein of each myocardial ischemia model rat. Subsequently, [^123I]HGF(11-83)-NH2 (73 aa) (100 MBq) prepared in a manner similar to that of Example 2 was administered through the right femoral vein. Thirty minutes after the administration, pinhole-SPECT imaging was conducted using a gamma camera (PRISM 2000, Shimadzu Corporation) (Imaging conditions: pinhole collimator, matrix sizes: 256×256, Mag 1.0, energy windows ^99mTc: 140 keV 10% and ^123I: 159 keV 10%, 3° 60 sec/step). […]

[4] = molecular target: T1, HGF receptor of HuCCT1 cells (Homo sapiens, UniProt P08581); experiment: Binding assay on HuCCT-1 cells with inhibition by hrHGF
T1 construct: c-Met-expressing HuCCT-1 cells (human-origin cholangiocarcinoma cells); endogenous in cells; host or cells: HuCCT-1 (human cholangiocarcinoma cells)
Description: Inhibition of binding of [^125I]HGF(11-83)-NH2 (73 aa) to c-Met-expressing HuCCT-1 cells (human-origin cholangiocarcinoma cells) by human recombinant HGF (hrHGF) was determined by the binding assay.
Specifically, a suspension of HuCCT-1 cells (100 μL, (1.5×10^5 cells)) prepared for a binding inhibition test was placed in an Eppendorf tube whose inner surface had been coated with bovine serum albumin (BSA), and a solution of hrHGF (PEPTIDE INSTITUTE, INC.) (50 μL, final concentration: 379 nM) was added to the tube. A negative control was prepared by adding a binding buffer (0.2% BSA, 20 mM HEPES Hanks' solution, pH 7.0) (50 μL) instead of the rhHGF solution. To the samples, 0.758 nM [^125I]HGF(11-83)-NH2 (73 aa) solution (50 μL) (final concentration: 0.190 nM, ratio by amount to hrHGF: 1:2,000) was added. Each Eppendorf tube containing HuCCT-1 cells was stirred and incubated at room temperature for one hour, followed by centrifuged at 4° C. (3,000 rpm, 3 min) to precipitate the cells. The supernatant was removed by means of an aspirator. The cells were stirred with an ice-cooled binding buffer (500 μL), and the mixture was centrifuged (3,000 rpm, 3 min). The procedure was repeated thrice. The radioactivity of the Eppendorf tube containing HuCCT-1 cells was measured by means of a gamma counter. The average and the standard deviation of the radioactivity (cpm) were calculated for the samples to which the hrHGF solution had been added (hrHGF(+)) and for the samples to which the binding buffer had been added (hrHGF(−)). The difference between the averages was assessed through the Student's t-test.

[5] = tested on: c-Met-expressed McA-RH7777 cells (rat-origin liver cancer cells) tumor; experiment: Accumulation in c-Met expressing tumor of implanted mice, autoradiography; assay type: in vivo, nude mice (BALB/c nu/nu); settings: compared with anti-c-Met antibody (SP-260) immunohistochemical staining of serial sections
Description: c-Met-specific accumulation of [^125I]HGF(11-83)-NH2 (73 aa) in a tumor was observed by autoradiography and immunohistostaining in mice subcutaneously implanted c-Met expressing cancer cells.
3. Observation of c-Met-Specific Accumulation of [^125I]HGF(11-83)-NH2 (73 aa) in a Tumor of Mice Subcutaneously Implanted c-Met Expressing Cancer Cells by Autoradiography and Immunohistostaining
A suspension of c-Met-expressed McA-RH7777 cells (rat-origin liver cancer cells) (200 μL, 2.0×10^6 cells) was subcutaneously injected to a right hindlimb of 6-week-old nude mice (BALB/c nu/nu: Japan SLC, Inc.). On day 9 (tumor volume: […] (McA-RH7777 cells)), the aforementioned labeled HGF-fragment (370 kBq/100 μL) was intravenously administered to each mouse. The tumor was isolated with muscles surrounding the tumor 15 minutes after administration, and frozen sections were prepared. Each frozen section was affixed to an imaging plate (Fuji Photo Film Co., Ltd) for seven days, and a [^125I]HGF(11-83)-NH2 (73 aa) accumulation image was observed by means of a bio-imaging analyzer BAS-1800 (Fuji Photo Film Co., Ltd) (FIG. 5). […] Serial frozen sections were subjected to hematoxylin-eosin (HE) staining (FIG. 6) and immunohistochemical staining with anti-c-Met antibody (SP-260) (FIG. 7).

T1 sequence (P08581 25-307 limits assumed): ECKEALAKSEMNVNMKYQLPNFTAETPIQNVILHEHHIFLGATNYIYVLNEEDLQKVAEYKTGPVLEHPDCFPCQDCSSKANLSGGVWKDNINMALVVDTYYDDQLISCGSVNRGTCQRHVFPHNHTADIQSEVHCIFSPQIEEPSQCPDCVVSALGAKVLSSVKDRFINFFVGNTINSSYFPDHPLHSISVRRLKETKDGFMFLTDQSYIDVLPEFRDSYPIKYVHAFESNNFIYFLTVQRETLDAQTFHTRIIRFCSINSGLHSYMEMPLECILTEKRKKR
T1 sequence (P08581 308-1390 limits assumed): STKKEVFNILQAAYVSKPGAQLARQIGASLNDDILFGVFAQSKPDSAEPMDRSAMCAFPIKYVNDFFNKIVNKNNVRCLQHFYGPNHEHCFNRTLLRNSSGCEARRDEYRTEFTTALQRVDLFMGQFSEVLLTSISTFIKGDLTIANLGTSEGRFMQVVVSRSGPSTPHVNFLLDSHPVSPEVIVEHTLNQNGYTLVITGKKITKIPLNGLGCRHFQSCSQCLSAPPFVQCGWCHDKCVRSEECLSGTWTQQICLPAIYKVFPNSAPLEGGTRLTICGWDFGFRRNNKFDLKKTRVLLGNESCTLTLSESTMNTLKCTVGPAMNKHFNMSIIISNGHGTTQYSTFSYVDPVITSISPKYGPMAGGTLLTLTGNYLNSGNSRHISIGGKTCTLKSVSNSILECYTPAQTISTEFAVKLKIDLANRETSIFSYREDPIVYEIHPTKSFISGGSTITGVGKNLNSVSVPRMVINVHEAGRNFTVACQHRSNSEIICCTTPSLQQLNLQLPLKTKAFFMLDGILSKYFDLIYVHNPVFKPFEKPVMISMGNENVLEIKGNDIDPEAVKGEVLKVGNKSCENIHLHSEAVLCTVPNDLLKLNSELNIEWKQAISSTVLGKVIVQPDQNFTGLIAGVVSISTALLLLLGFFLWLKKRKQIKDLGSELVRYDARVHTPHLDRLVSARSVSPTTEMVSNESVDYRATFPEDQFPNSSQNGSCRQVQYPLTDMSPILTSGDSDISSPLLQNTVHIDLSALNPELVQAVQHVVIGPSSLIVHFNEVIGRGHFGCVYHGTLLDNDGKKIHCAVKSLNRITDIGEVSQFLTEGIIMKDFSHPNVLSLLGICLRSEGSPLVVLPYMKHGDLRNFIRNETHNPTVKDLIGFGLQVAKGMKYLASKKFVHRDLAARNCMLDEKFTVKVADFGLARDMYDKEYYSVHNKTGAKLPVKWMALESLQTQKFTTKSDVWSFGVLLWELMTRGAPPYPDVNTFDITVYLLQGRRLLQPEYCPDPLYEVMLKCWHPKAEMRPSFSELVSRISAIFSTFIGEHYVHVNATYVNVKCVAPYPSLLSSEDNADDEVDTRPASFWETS

NaCl concentration at elution from heparin column [1] | Portion of the sample with strong heparin-binding activity ([1]; from the peak area ratios) | Area ratio of the heparin-binding peak ([1]; peak at 20.3 min, other peaks are free 125I and decomposed or denatured peptide) [%] | Radioactivity bound to HuCCT1 cells, hrHGF(+) samples ([4]; 0.190 nM labeled peptide with 379 nM hrHGF, room temperature, one hour, mean±SD) [cpm] | Radioactivity bound to HuCCT1 cells, hrHGF(−) samples ([4]; 0.190 nM labeled peptide, room temperature, one hour, mean±SD) [cpm] | Reduction of binding to the cells by addition of hrHGF ([4]; hrHGF 379 nM, 2,000-fold mole concentration, P=0.040) [%] | Molecule | Accumulation at the infarct border zone (autoradiography) [2] | Accumulation at the infarct border zone (pinhole-SPECT) [3] | Specificity of accumulation in tumor [5]
about 1.5 M |  |  |  |  |  | hrHGF: human recombinant HGF (PEPTIDE INSTITUTE, INC.), positive control with high heparin-binding activity [reference compound] |  |  | 
 |  |  |  |  |  | [99Tc].[C-]#[N+]CC(C)(C)OC.[C-]#[N+]CC(C)(C)OC.[C-]#[N+]CC(C)(C)OC.[C-]#[N+]CC(C)(C)OC.[C-]#[N+]CC(C)(C)OC.[C-]#[N+]CC(C)(C)OC [^99mTc-MIBI] | reduced accumulation | reduced accumulation | 
about 1.3 M | about 80% | 78.1 | 20916.9±1574.2 | 26136.2±2580.8 | 20 | [^125I]HGF(11-83)-NH2 (73 aa): labeled product prepared through directly introducing 125I into HGF(11-83)-NH2 (73 aa) (peptide) peptide: FKKSAKTTLIKIDPALKIKTKKVNTADQCANRCTRNKGLPFTCKAFVFDKARKQCLWFPFNSMSSGVKKEFGH |  |  | c-Met-specific
